Where a SMILES comes first, the peptide text is derived from it. The star is where a group is joined. Cbz = O=C(OCc1ccccc1)*
Legend:
[1] = system: T1, p-Prl^PP/29, 29 aa mutant signal peptide of pre-prolactin
T1 sequence: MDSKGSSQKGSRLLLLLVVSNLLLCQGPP

signal peptidase = settings: previous studies (Weihofen et al., 2000); cited from earlier work
SPPase [2] = assay: Photo-labelling of CHAPS-solubilised ER membrane proteins with TBL4K, anti-biotin western blot; assay type: binding, dog; settings: 50 nM TBL4K
Procedure: CHAPS-solubilised ER membrane proteins were mixed with 50 nM TBL4K (dissolved in DMSO) and samples incubated at 30° C. for 1 hour. Where indicated, samples were irradiated with UV light before precipitation with 10% trichloroacetic acid. Proteins were resolved on Tris-glycine acrylamide gels, transferred to PVDF membrane and biotinylated proteins were visualised by western blotting with polyclonal anti-biotin antibody.
For analytical labelling, 2 μl of CHAPS-solubilised ER membrane proteins were diluted with 16 μl of SPPase buffet (25 mM HEPES-KOH, pH 7.6, 100 mM KOAc, 2 mM Mg(OAc)2, 1 mM DTI) and supplemented with 50 nM TBL4K (dissolved in DMSO). Samples were incubated at 30° C. for 1 hour and subsequently irradiated with UV light (30 seconds; 350 W high pressure mercury lamp with a pyrex filter, 10 cm distance to lamp). Proteins were precipitated with 10% trichloroacetic acid and resolved on either Tris-glycine acrylamide gels (10% T, 2.7% C) (Lämmli, 1970 Nature, 227, 570-574). Biotinylated proteins were visualised by Western blotting with a polyclonal anti-biotin antibody (Bethyl). Western blot analysis was performed as described in Section 3, Materials and Methods for R308 antisera. […]

[3] = molecular target: T2, signal peptide peptidase (SPPase) (Canis lupus familiaris, UniProt A0A8I3P6M4); assay: In vitro translation/translocation of SP-E1/100 and core-E1/100 with ER-derived rough microsomes: SPPase processing; assay type: biochemical, dog; settings: 10 μM (Z-LL)2-ketone; for Production of the 19 kDa core species (core179) from core-E1/100: FIG. 1B, FIG. 3B
T2 construct: translated in reticulocyte lysate in the presence of endoplasmic reticulum-(ER) derived rough microsomes; from tissue; host or cells: nuclease-treated rough microsomes from dog pancreas
T2 sequence (A0A8I3P6M4 entry or part of it): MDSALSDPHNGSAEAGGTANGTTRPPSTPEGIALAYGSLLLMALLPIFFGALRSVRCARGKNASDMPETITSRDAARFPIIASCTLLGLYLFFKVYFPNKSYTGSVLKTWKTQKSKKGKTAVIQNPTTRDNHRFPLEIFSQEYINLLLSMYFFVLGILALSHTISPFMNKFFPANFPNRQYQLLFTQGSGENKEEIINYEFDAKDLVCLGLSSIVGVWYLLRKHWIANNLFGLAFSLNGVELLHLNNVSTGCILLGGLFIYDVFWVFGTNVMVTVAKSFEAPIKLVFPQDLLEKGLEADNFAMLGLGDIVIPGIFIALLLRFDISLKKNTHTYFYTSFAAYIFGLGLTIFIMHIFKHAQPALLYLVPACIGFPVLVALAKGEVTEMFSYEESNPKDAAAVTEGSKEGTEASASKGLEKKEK
Procedure: The mRNAs were translated in 25 μl rabbit reticulocyte lysate (Promega) containing [^35S]-methionine (Amersham-Pharmacia) and, where indicated, 2 eq of nuclease-treated rough microsomes prepared from dog pancreas (Martoglio et al., 1998, Cell Biology: A Laboratory Handbook. Academic Press, San Diego, Calif., vol 2, 265-274). To inhibit signal peptide peptidase (SPPase) processing, 10 μM (Z-LL)2-ketone was added to reactions (Weihofen et al., 2000 J Biol Chem 275, 30951-30956), and reactions were supplemented with 30 μM N-benzoyl-Asn-Leu-Thr-methyamide to prevent N-glycosylation of translated products (Martoglio et al., 1998, Cell Biology: A Laboratory Handbook. Academic Press, San Diego, Calif., vol 2,265-274). Samples were incubated for 30 min at 30° C. Reactions containing microsomes were next diluted with 25 μl of RM buffer (50 mM HEPES-KOH, pH7.6, 50 mM KOAc, 2 mM Mg(OAc)2, 1 mM DTT, 250 mM sucrose), and the salt concentration was raised to 500 mM KOAc. After incubation for 5 min on ice, membranes were separated by centrifugation through a 100 μl sucrose cushion (RM buffer with 500 mM KOAc and 500 mM sucrose) at 48,000 rpm for 3 min at 4° C. in a Beckman TLA100 rotor. Membrane pellets were prepared for SDS-PAGE as described (Weihofen et al., 2000 J Biol Chem. 275, 30951-30956).
This processing event was re-examined in an in vitro translation/translocation system. Two RNA substrates, that had been transcribed in vitro, were employed. One contained the E1 signal sequence and the N-terminal 100 aa of E1 (SP-E1/100), and the second consisted of the entire core protein, including the signal sequence, plus the N-terminal 100 aa of E1 (core-E1/100). These were translated in reticulocyte lysate in the presence of endoplasmic reticulum-(ER) derived rough microsomes and [^35S]-methionine. Microsomes were subsequently isolated and analysed for retention of radiolabelled translation products.

BHK C13 cells = assay: Abundance of HCV core protein in electroporated BHK cells treated with MG132 (western blot, immunofluorescence); assay type: cell-based, baby hamster; settings: MG132 for 12 hours at 37° C.
Procedure: BHK cells were electroporated with RNA and 5 hours after incubation at 37° C., they were treated with MG132 for 12 hours at 37° C. Cells were either fixed with methanol for indirect immunofluorescence (A) or extracts were prepared for Western blot analysis (B and C).
For the purposes of the present invention, the cultured cells derived from baby hamster kidney (BHK) C13 cells were grown and maintained in Glasgow minimal Eagle's Medium supplemented with 10% new-born calf serum (CS), 4% tryptose phosphate broth, and 100 IU/ml penicillin/streptomycin (ETC10). To treat cells with MG132 (Boston Biochem), cultured cells were incubated for 5 hours after electroporation at 37° C. and the BHK media was replaced with fresh media containing the protease inhibitor at a final concentration of […]. Incubation was continued at 37° C. for a further 12 hours before the cells were either harvested for Western blot analysis or fixed for indirect immunofluorescence studies.

SPPase [4] = assay: Signal peptide processing of p-PrlPP/29 by CHAPS-solubilised ER membrane proteins containing SPPase activity; assay type: biochemical, dog; set-up: SPF production: dose or concentration left out as unconfirmed
Procedure: Radio-labelled p-Prl^PP/29 signal peptide was generated by in vitro translation in wheat germ extract containing [^35S]-methionine. Peptide was added to CHAPS-solubilised membranes in the absence or presence of TBL4K (at the indicated final concentrations) and incubated for 1 hour at 30° C. Proteins were precipitated with 10% trichloroacetic acid and analysed by SDS-PAGE using Tris-bicine-urea acrylamide gels. Bands corresponding to signal peptide substrate (ps) and the fragment of signal peptide remaining after SPPase processing (SPF) are indicated.
The inhibitory effect of TBL4K on SPPase was assayed with CHAPS-solubilised ER membrane proteins and an in vitro translated peptide substrate. The substrate was a 29 aa residues long mutant signal peptide of pre-prolactin (p-Prl^PP/29; […]). The VV→PP mutation at the end of the signal peptide prevents cleavage by signal peptidase, which can cleave the peptide at the cryptic cleavage site at G27 when solubilised in CHAPS (B.M. unpublished). […] Proteins were precipitated by adding 4 μl of 100% trichloroacetic acid, and analysed by SDS-PAGE using Tris-bicine-urea acrylamide gels (15% T or 10% T, 5% C; 8 M urea) (Wiltfang et al., 1997 Electrophoresis 18, 527-532). […]

In the case of “signal peptide peptidase (SPPase) of ER-derived rough microsomes from dog pancreas”, the “cleavage of the signal peptide (in vitro translation/translocation)” value (SP-E1/100 MUTII) is reported as “cleavage of the signal peptide was reduced with both mutants, but to a greater extent with pSP/MUTII as compared to pSP/MUTI”, the “signal peptide processing by SPPase (in vitro translation/translocation, with and without (Z-LL)2 ketone)” value (SP-E1/100 (wild type)) is reported as “the internal signal sequence at the junction of core-E1 functions as a typical ER targeting signal and is a substrate not only for signal peptidase but also for SPPase” and the “product cleaved by SPPase (in vitro translation/translocation)” value (core-E1/100 MUTII) is reported as “failed to generate any detectable product that had been cleaved by SPPase”. The “efficiency of processing (core179 relative to core191+core179)” value (core-E1/100 MUTI) was “reduced efficiency of processing from 40% to 12%”, the “cleavage of the signal peptide (in vitro translation/translocation)” value (SP-E1/100 MUTI) was “cleavage of the signal peptide was reduced with both mutants, but to a greater extent with pSP/MUTII as compared to pSP/MUTI” and the “efficiency of processing (core179 relative to core191+core179)” value (core-E1/100 (wild type)) was “reduced efficiency of processing from 40% to 12%”. For the same compound, the “production of the 19 kDa core species (in vitro translation/translocation, with and without (Z-LL)2 ketone)” value (core-E1/100 (wild type)) was “the signal peptide at the junction of core-E1 sequences in HCV is first cleaved by signal peptidase and subsequently processed by SPPase”, the “signal peptide processing (production of the SPF fragment) with CHAPS-solubilised ER membrane proteins” value [1] was “signal peptide processing reactions were performed with a substrate, p-Prl^PP/29, that corresponds to a mutated signal peptide of pre-prolactin, and CHAPS-solubilised ER membrane proteins containing SPPase activity” and the “product cleaved by SPPase (in vitro translation/translocation)” value (core-E1/100 MUTIII) was “failed to generate any detectable product that had been cleaved by SPPase”. The “processing of the signal peptide by SPPase” value (SP-E1/100 MUTIII) was “less than 5% processing of the signal peptide by SPPase”.

In the case of `CC(C)C[C@H](NC(=O)OCc1ccccc1)C(=O)N[C@@H](CC(C)C)C(=O)NCC(=O)CNC(=O)[C@H](CC(C)C)NC(=O)[C@H](CC(C)C)NC(=O)OCc1ccccc1` [(Z-LL)2 ketone], the “Effect on cleavage by signal peptidase” value (signal peptidase) is given as “does not affect”, the “Labelling by TBL4K in presence of competitor” value (SPPase [2]; highest concentration of (Z-LL)2 ketone, FIG. 10) is given as “almost completely abolished” and the “Cleavage by SPPase of the signal peptide generated from SP-E1/100” value ([3]; FIG. 1A) is given as “blocked”. For the same compound, the “Production of the 19 kDa core species (core179) from core-E1/100” value [3] was “blocked” and the “Production of the 19 kDa core species (core179) from core-E1/100” value ([3]; listed as SPPase inhibitor) was “not generated”.

In the case of `CC(C)C[C@@H](C=O)NC(=O)[C@H](CC(C)C)NC(=O)[C@H](CC(C)C)NC(=O)OCc1ccccc1` [MG132] (Cbz-Leu-Leu-Leu-aldehyde), the “Levels of core produced by pSF/CE1E2 (core variant lacking residues 125-144)” value (BHK C13 cells; FIG. 7B lanes 3 and 4) is reported as “enhanced levels” and the “Amount of core in cells electroporated with pSF/MUTIII RNA (125-144 deleted, signal peptide mutations)” value (BHK C13 cells; FIG. 7B lanes 5 and 6) is reported as “did not affect”.

For (TDBA-LL)(Biotin-X-LL) ketone [TBL4K], the SPF production (SPPase [4]; highest concentration used) was “abolished”, the IC50 (SPPase [4]; substrate p-PrlPP/29, 1 hour at 30° C., FIG. 9, read-out: IC50 for inhibition of SPPase activity) was roughly 0.05 µM and the “Proteins labelled after UV activation” value (SPPase [2]; UV light, FIG. 10 lane 3) was “labelling of a major product of about 42 kDa”.

— patent publication US20050089839A1, “Assay” (priority 2001, published 2005)
